Residue numbers refer to the chain shown, from its start. Names and notes keep the numbering of the source.
B1: GpH7-TA4/GpH7-B3-15-02A/GpL16-k0 (antibody, human IgG1, kappa)
heavy 1: QVQLVQSGAEVKKPGASVTVSCKASGYTFTDYEMHWIRQPPGEGLEWIGAIDPKTGDTAYSESFQDRVTLTADKSTSTAYMELSSLTSEDTAVYYCTRFYSYTYWGQGTLVTVSSASTKGPSVFPLAPSSKSTSGGTAALGCLVKDYFPEPVTVSWNSGALTSGVHTFPAVLQSSGLYSLSSVVTVPSSSLGTQTYICNVNHKPSNTKVDKKVEPKSCDKTHTCPPCPAPEYLWGPSVFLFPPKPKDTLMISRTPEVTCVVVDVSHEDPEVKFNWYVDGVEVHNAKTKPREEQYNSTYRVVSVLTVLHQDWLNGKEYKCKVSNKALPAPIEKTISKAKGQPREPQVYTLPPSRKELTKNQVSLTCLVKGFYPSDIAVEWESNGQPENNYKTTPPVLDSDGSFFLYSKLTVDKSRWQQGNVFSCSVMHEALHNRYTQKSLSLSP
heavy 2: not shown
light: DIVMTQSPLSLPVTPGEPASISCQASESLVHSNRNTYLHWYLQKPGQSPQLLIYKVSNRFSGVPDRFSGSGSGTDFTLKISRVEAEDVGVYYCSQNTHVPPTFGQGTKVEIERTVAAPSVFIFPPSDEQLKSGTASVVCLLNNFYPREAKVQWKVDNALQSGNSQESVTEQDSKDSTYSLSSTLTLSKADYEKHKVYACEVTHQGLSSPVTKSFNRGEC
notes: H1 L234Y and G236W; H2 S298A
B2: GpH7-TA6/GpH7-B3-01-15Y/GpL16-k0 (antibody, human IgG1, kappa)
heavy 1: B1 heavy 1 with Y232L, S296A
heavy 2: not shown
light: B1 light
notes: H1 G236W and S298A; H2 L234Y
B3: GpH7-TA5/GpH7-B3-03-20W/GpL16-k0 (antibody, human IgG1, kappa)
heavy 1: B1 heavy 1 with W234G, S296A
heavy 2: not shown
light: B1 light
notes: H1 L234Y and S298A; H2 G236W
B4: GpH7-A5/GpH7-B3/GpL16-k0 (antibody, human IgG1, kappa)
heavy 1: not shown
heavy 2: not shown
light: B1 light
notes: also called HeCon Ab; control heterodimerized antibody
B5: GpH7-A57/GpH7-B78/GpL16-k0 (antibody, human IgG1, kappa)
heavy 1: B1 heavy 1 with Y232L, W234G, S237D, A328L, I330E
heavy 2: B1 heavy 1 with Y232L, W234G, S237D, A328L, I330E, K354D, R433H, K437E
light: B1 light
notes: Anti-glypican-3 IgG1; The two chains differ only in D356K/H435R and K439E
B6: GpH7-TA7/GpH7-TA45/GpL16-k0 (antibody, human IgG1, kappa)
heavy 1: B1 heavy 1 with S296A
heavy 2: B1 heavy 1 with S296A, K354D, R433H, K437E
light: B1 light
notes: as for B5
B7: GpH7-A5/GpH7-B78/GpL16-k0 (antibody, human IgG1, kappa)
heavy 1: not shown
heavy 2: B1 heavy 1 with Y232L, W234G, S237D, A328L, I330E, K354D, R433H, K437E
light: B1 light
notes: Anti-glypican-3 IgG1 heterodimer; S239D/A330L/I332E in H2 only
B8: GpH7-TA7/GpH7-B3/GpL16-k0 (antibody, human IgG1, kappa)
heavy 1: B1 heavy 1 with S296A
heavy 2: not shown
light: B1 light
notes: Anti-glypican-3 IgG1 heterodimer; L234Y/G236W/S298A in H1 only
B9: GpH7-A53/GpH7-B78/GpL16-k0 (antibody, human IgG1, kappa)
heavy 1: B1 heavy 1 with Y232L, W234G, S237D
heavy 2: B1 heavy 1 with Y232L, W234G, S237D, A328L, I330E, K354D, R433H, K437E
light: B1 light
notes: Anti-glypican-3 IgG1 heterodimer; S239D in H1, S239D/A330L/I332E in H2
B10: GpH7-A5/GpH7-TA45/GpL16-k0 (antibody, human IgG1, kappa)
heavy 1: not shown
heavy 2: B1 heavy 1 with S296A, K354D, R433H, K437E
light: B1 light
notes: Anti-glypican-3 IgG1 heterodimer; L234Y/G236W/S298A in H2 only
B11: GpH7-TA7/GpH7-B12/GpL16-k0 (antibody, human IgG1, kappa)
heavy 1: B1 heavy 1 with S296A
heavy 2: not shown
light: B1 light
notes: Anti-glypican-3 IgG1 heterodimer; L234Y/G236W/S298A in H1, P329R in H2
B12: GpH7-TA8/GpH7-B3/GpL16-k0 (antibody, human IgG1, kappa)
heavy 1: B1 heavy 1 with S296A, P327R
heavy 2: not shown
light: B1 light
notes: Anti-glypican-3 IgG1 heterodimer; L234Y/G236W/S298A/P329R all in H1
B13: GpH7-A5/GpH7-B3/GpL16-k0 (antibody, human IgG1, kappa)
heavy 1: not shown
heavy 2: not shown
light: B1 light
notes: as for B4
B14: GpH7-A44/GpH7-B80/GpL16-k0 (antibody, human IgG1, kappa)
heavy 1: B1 heavy 1 with Y232L, W234G, I330E
heavy 2: not shown
light: B1 light
B15: GpH7-A5/GpH7-B80/GpL16-k0 (antibody, human IgG1, kappa)
heavy 1: not shown
heavy 2: not shown
light: B1 light
notes: Heterodimerized antibody with I332E in one H chain only
B16: GpH7-A44/GpH7-B3/GpL16-k0 (antibody, human IgG1, kappa)
heavy 1: B1 heavy 1 with Y232L, W234G, I330E
heavy 2: not shown
light: B1 light
notes: as for B15

Target: FcγRIIIa extracellular domain with C-terminal His tag (human, UniProt P08637 17-208)
Assay: SPR (Biacore), relative binding activity; GpH7-A5/GpH7-B3/GpL16-k0 = 100
Target sequence in this assay (P08637 17-208): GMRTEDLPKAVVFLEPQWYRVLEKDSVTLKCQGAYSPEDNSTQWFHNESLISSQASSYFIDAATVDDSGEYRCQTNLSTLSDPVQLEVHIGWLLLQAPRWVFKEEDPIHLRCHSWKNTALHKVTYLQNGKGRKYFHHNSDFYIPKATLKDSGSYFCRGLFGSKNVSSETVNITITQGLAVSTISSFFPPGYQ

| FcγRIIIa BINDING ACTIVITY | Binder |
| --- | --- |
| 151% | B1 |
| 103% | B2 |
| 97% | B3 |

Target: T1, FcγRIIIa (human, UniProt P08637 17-208)
T1 construct: extracellular domain; also called FcgRIIIa; CD16A; not shown: His tag attached to the C terminus
Assay: ratio of SPR KDs: KD of GpH7-A5/GpH7-B3/GpL16-k0 divided by KD of this antibody
Method: (§1) The prepared antibodies were compared for the FcγRIIIa-binding activity using, as an indicator, KD for FcγRIIIa that was determined according to the method described in Reference Example 2.
(§2) Analysis of interaction between objective antibody and the FcγR was carried out using Biacore T100 (GE Healthcare). HBS-EP+ (GE Healthcare) was used as the running buffer, and the measurement temperature was set to 25° C. Chips produced by immobilizing the antigen peptide by the amine coupling method to a Series S Sencor Chip CM5 (GE Healthcare), or alternatively, chips produced by allowing preliminarily biotinylated antigen peptides to interact with and immobilize onto a Series S Sensor Chip SA (certified) (GE Healthcare) were used. Antibodies of interest were captured onto an antigen peptide-immobilized chip, and allowed to interact to each FcγR diluted with running buffer. To regenerate and repeatedly use the chip, the antibodies captured on the chip were washed off by reacting 10 mM glycine-HCl, pH 1.5.
(§3) Specifically, to calculate association rate constant ka (L/mol/s) and dissociation rate constant kd (1/s), sensorgrams obtained by measurement were processed for global fitting by Biacore Evaluation Software using 1:1 Langmuir binding model and dissociation constant KD (mol/1) was calculated from the resulting values.

T1 sequence (P08637 17-208): as above

| KD ratio 2 | Binder |
| --- | --- |
| 1 fold | B4 |
| 263 fold | B5 |
| 0.49 fold | B6 |
| 30 fold | B7 |
| 5.1 fold | B8 |

Target: T1, FcγRIIIa
Assay: ratio of SPR KDs: KD of GpH7-A5/GpH7-B78/GpL16-k0 divided by KD of this antibody
Method: To assess this hypothesis, GpH7-A53 (SEQ ID NO: 42) resulting from the introduction of S239D into GpH7-A5 was constructed, and, this is combined with GpH7-B78 introduced with S239D, A330L, and I332E, and the expression and preparation were performed according to the method described in Reference Example 1. The effect of the combination of S239D and S239D, A330L, and I332E was assessed by comparing the FcγRIIIa binding between the heterodimerized and homodimerized antibodies with S239D, A330L, and I332E according to the method described in Reference Example 2 (Table 14).
as §2, §3

| KD ratio | Binder |
| --- | --- |
| 4.9 fold | B9 |
| 8.7 fold | B5 |
| 1 fold | B7 |

Target: T1, FcγRIIIa
Assay: SPR (Biacore), antibody captured on antigen-peptide chip, FcγR as analyte; relative binding amount
Method: Specifically, GpH7-TA7 and GpH7-TA45 (SEQ ID NO: 32) resulting from the introduction of L234Y, G236W, and S298A into GpH7-A5 and GpH7-B3, respectively, were prepared according to the method described in Reference Example 1. […] These antibodies were compared for the FcγRIIIa binding according to the method described in Reference Example 2 (Table 10).
as §2

| FcγR BINDING ACTIVITY (relative FcγRIIIa binding) | Binder |
| --- | --- |
| 100 relative, GpH7-A5/GpH7-B3/GpL16-k0 = 100 | B4 |
| 48 relative, GpH7-A5/GpH7-B3/GpL16-k0 = 100 | B6 |
| 210 relative, GpH7-A5/GpH7-B3/GpL16-k0 = 100 | B8 |
| 225 relative, GpH7-A5/GpH7-B3/GpL16-k0 = 100 | B10 |

Target: T1, FcγRIIIa
Assay: as above
Remark: another data set of the same source
Method: GpH7-TA8 (SEQ ID NO: 33) and GpH7-B12 (SEQ ID NO: 12) resulting from the introduction of P329R into GpH7-TA7 and GpH7-B3, respectively, were prepared according to the method described in Reference Example 1.
as §2

| FcγRIIIa BINDING ACTIVITY (relative) | Binder |
| --- | --- |
| 100 relative, GpH7-A5/GpH7-B3/GpL16-k0 = 100 | B4 |
| 11 relative, GpH7-A5/GpH7-B3/GpL16-k0 = 100 | B11 |
| 150 relative, GpH7-A5/GpH7-B3/GpL16-k0 = 100 | B12 |
| 210 relative, GpH7-A5/GpH7-B3/GpL16-k0 = 100 | B8 |

Target: T1, FcγRIIIa
Assay: ratio of SPR KDs: KD of GpH7-G1d/GpL16-k0 divided by KD of this antibody
Method: as §1, §2, §3

| KD ratio 1 | Binder |
| --- | --- |
| 0.75 fold | B4 |
| 199 fold | B5 |
| 0.37 fold | B6 |
| 23 fold | B7 |
| 3.8 fold | B8 |

Target: T2, FcγRIIIa extracellular domain with C-terminal His tag (human, UniProt P08637 17-208)
T2 construct: extracellular domain; also called FcgRIIIa; 3a; not shown: His tag attached to the C terminus
Assay: SPR (Biacore), ratio of KD for FcγRIIIa against GpH7-A5/GpH7-B3/GpL16-k0
Description: Then, the present inventors introduced I332E into only one H chain, and assessed whether the Tm is elevated as compared to when I332E is introduced into both H chains. Expression vectors inserted with GpH7-A44 (SEQ ID NO: 49) and GpH7-B80 (SEQ ID NO: 50) resulting from the introduction of I332E into GpH7-A5 and GpH7-B3, respectively, were constructed. They were combined with GpH7-B3, GpH7-A5, and GpL16-k0 to express and prepare the following antibodies according to the method described in Reference Example 1: the heterodimerized antibodies GpH7-A5/GpH7-B80/GpL16-k0 and GpH7-A44/GpH7-B3/GpL16-k0 in which only one of the H chains was introduced with I332E, and the homodimerized antibody GpH7-A44/GpH7-B80/GpL16-k0 in which both of the H chains were introduced with I332E. […] Each antibody was assessed for the FcγRIIIa-binding activity according to the method described in Reference Example 2. In addition, the antibodies were compared for the Tm of CH2 domain by thermal shift assay according to the method described in Reference Example 5 (Tables 28 and 29).
as §2
The FcγR-binding activity of each antibody was assessed primarily using as an indicator the FcγR-binding activity and dissociation constant for FcγR.
T2 sequence (P08637 17-208): as above

| KD ratio | Binder |
| --- | --- |
| 1 fold (KD of GpH7-A5/GpH7-B3/GpL16-k0 divided by KD of the antibody) | B13 |
| 7.1 fold (KD of GpH7-A5/GpH7-B3/GpL16-k0 divided by KD of the antibody) | B14 |
| 3.4 fold (KD of GpH7-A5/GpH7-B3/GpL16-k0 divided by KD of the antibody) | B15 |
| 4.4 fold (KD of GpH7-A5/GpH7-B3/GpL16-k0 divided by KD of the antibody) | B16 |

— patent US20150344570A1 (published 2015)
